Experimental findings from US6740496B1, “Determination of biologically active forms of proteolytic enzymes” (Synapse B.V., priority 1999, dated 2004) are described below.

What all share (assay type): biochemical
Data set [1] deals with T1, human α2M-IIa (Homo sapiens, UniProt P00734).
T1 construct: The formation of thrombin in clotting blood or plasma arises from prothrombin by an enzymatic controlled reaction
In words: Hydrolysis of OA-AR-AMC by thrombin inactivated by α2M (AMC fluorescence). The procedure: (§1) The assay was carried out at 25° C. in 96 well Microfluor W “U” bottomed micro titre plates (Dynex, London, UK) in 10 mM HEPES, 5 mM CaCl2, 0.02% sodium azide, pH 8.0). In case of -∘- the vessel contained 5.5 μM OA-AR-AMC (Ala-Arg-AMC coupled to ovalbumin) and 85 nM human thrombin and in case of -∇-5.5 μM OA-AR-AMC and 65 μM human α2M-IIa. The black symbols (-●- and -▾-) were obtained by fitting assuming that the substrate is hydrolysed by thrombin according to Michaelis-Menten kinetics. […] For hydrolysis by α2M-IIa the already derived S0 and Km were found and kcat=0.008 s^−1.

Data set [2] concerns the target T2, human thrombin (Homo sapiens, UniProt P00734).
T2 construct: The formation of thrombin in clotting blood or plasma arises from prothrombin by an enzymatic controlled reaction
As to the kind of experiment: Hydrolysis of OA-AR-AMC by free thrombin (AMC fluorescence). As to conditions: 5.5 μM OA-AR-AMC, 85 nM human thrombin, 25° C., pH 8.0, Michaelis-Menten fit. As for the experimental part: as §1

The target of data set [3] is T2, human thrombin. In words: Amidolytic activity of human thrombin towards OA-S2288 (pNA release, OD 405 nm). The conditions noted are these: Michaelis-Menten fit. The procedure:
(§2) The amidolytic activity of human thrombin and human α2M-IIa towards OA-S2288 was measured. The reaction mixtures contained 22 μM OA-S2288, 50 nM thrombin or α2M-IIa and 175 mM NaCl, 50 mM Tris-HCl, 2 mg/ml ovalbumin (pH 7.9).
(§3) In FIG. 2 the amount of free p-nitroanilide (pNA) formed, expressed as milli optical density at 405 nm, is plotted against the time. The reaction temperature was 37° C. The grey curves are the measured data, whereas the black line is obtained by fitting, assuming that product formation occurs according to Michaelis-Menten kinetics.
(§4) Product formation in time can be described as: E.kcat. St/(Km+St), in which St is the substrate concentration in time (i.e. the substrate concentration originally present (S0) minus the formed product or split substrate, and E is the enzyme that splits the substrate, either thrombin or α2M-IIa.

The target in data set [4] is T1, human α2M-IIa. As to the kind of experiment: Amidolytic activity of human α2M-IIa towards OA-S2288 (pNA release, OD 405 nm). As for the experimental part:
as §2, §3, §4

In general, kcat refers to the maximal rate divided by the concentration of active sites. As usually defined, the Km is the concentration of substrate that gives half-maximal velocity. For “ovalbumin coupled to H-alanyl-L-arginine-7-amido-4-methyl-coumarin [OA-AR-AMC]”, the kcat in data set [1] (5.5 μM OA-AR-AMC, 65 μM human α2M-IIa, 25° C., pH 8.0, Michaelis-Menten fit) is 0.008 s⁻¹; in data set [2], 3.3 s⁻¹. In addition, the Michaelis constant (Km) in data set [1] (hydrolysis by α2M-IIa, the already derived S0 and Km) is 1200 nM; in data set [2], 1200 nM. The “hydrolysis by thrombin entrapped in α2M (in words)” value in data set [1] (ovalbumin coupled to Ala-Arg-AMC) was “will not be split anymore by thrombin entrapped in the cavity of α2M”.
As to “ovalbumin coupled to H-D-isoleucyl-L-prolyl-L-arginine-p-nitroanilide.2HCl [OA-S2288]”, the Km in data set [3] (22 μM OA-S2288, 50 nM thrombin, pH 7.9, 37° C.) was 1470 nM. Further, the kcat came out at 0.31 s⁻¹ in data set [3] (E is thrombin, 22 μM OA-S2288, 50 nM enzyme, 37° C.) and 0.002 s⁻¹ in data set [4] (E is α2M-IIa, 22 μM OA-S2288, 50 nM enzyme, 37° C., Michaelis-Menten fit). The “hydrolysis by α2M-IIa (in words)” value in data set [4] (ovalbumin coupled to S2288) was “loses its ability to be hydrolysed by α2M-IIa, but not by thrombin”.
